Source: patent US20150175678A1 (BETH ISRAEL DEACONESS MEDICAL CENTER, published 2015)

Assays:
[1] = molecular target: HIV-1 JR-FL (Clade B, R5) envelope glycoprotein gp120 (HIV-1, isolate JR-FL); test: cell-based or functional assay
[2] = molecular target: HIV-1 67970 (Clade B, X4) envelope glycoprotein gp120 (HIV-1, isolate 67970); test: cell-based or functional assay

B1: F425-A1g8 IgA1 antibody variant expressed from CHO-K1 cells (antibody)
heavy: QEQLVESGGGVVQPGRSLRLSCEASGFIFSAFVLHWVRQAPGKGLEWVAVVWYDGNSKYYADSVKGRFTISRDTSQNTLHLQMDSLRPEDTAVYYCAREWVADDDTFDGFDVWGQGTMVTVSSASLTSPKVFPLSLCSTQPDGNVVIACLVQGFFPQEPLSVTWSESGQGVTARNFPPSQDASGDLYTTSSQLTLPATQCLAGKSVTCHVKHYTNPSQDVTVPCPVPSTPPTPSPSTPPTPSPSCCHPRLSLHRPALEDLLLGSEANLTCTLTGLRDASGVTFTWTPSSGKSAVQGPPDRDLCGCYSVSSVLSGCAEPWNHGKTFTCTAAYPESKTPLTATLSKSGNTFRPEVHLLPPPSEELALNELVTLTCLARGFSPKDVLVRWLQGSQELPREKYLTWASRQEPSQGTTTFAVTSILRVAAEDWKKGDTFSCMVGHEALPLAFTQKTIDRLAGKPTHVNVSVVMAEVDGTCY
light: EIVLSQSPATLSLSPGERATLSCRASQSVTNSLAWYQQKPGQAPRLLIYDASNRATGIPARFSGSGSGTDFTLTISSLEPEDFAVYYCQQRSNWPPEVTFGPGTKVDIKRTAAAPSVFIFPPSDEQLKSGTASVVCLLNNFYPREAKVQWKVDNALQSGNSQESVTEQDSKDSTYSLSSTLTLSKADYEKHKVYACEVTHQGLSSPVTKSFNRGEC
Neutralization of HIV-1, IC50 (TZM-bl cells, beta-galactosidase) [1]: 1.73 mg/L | Neutralization of HIV-1, IC50 (TZM-bl cells, beta-galactosidase) [2]: 23.3 mg/L
